What was measured:
hPD-1-Fc [1] = target: T1, hPD-1-Fc (human, UniProt Q15116 25-167); experiment: ELISA, hPD-1-Fc coated
T1 construct: domain: IgV domain; also called human PD-1-Fc; not shown: human IgG1 Fc

hPD-1-Fc [2] = target: T1, hPD-1-Fc; experiment: blocking ELISA, hPD-1 to hPD-L1; set-up: unit not given here
hPD-1-his [3] = target: T2, hPD-1-his (human, UniProt Q15116 25-167); experiment: ELISA, PD-1-his on anti-his
T2 construct: domain: IgV domain; monomer in solution; biotin-labelled where captured by streptavidin; also called biotin-hPD-1-his

hPD-1-his [4] = target: T2, hPD-1-his; experiment: ELISA, PD-1-his on streptavidin
hPD-1-his [5] = target: T2, hPD-1-his; experiment: SPR Biacore T200, PD-1-his immobilised
hPD-1-Fc [6] = target: T1, hPD-1-Fc; experiment: SPR Biacore T200, PD-1-Fc immobilised
hPD-1-Fc [7] = target: T1, hPD-1-Fc; experiment: blocking ELISA, hPD-1-Fc to hPD-L1-Fc
hPD-1-his [8] = target: T2, hPD-1-his; experiment: ELISA, hPD-1-his on anti-his
hPD-1-his [9] = target: T2, hPD-1-his; experiment: ELISA, biotin-hPD-1-his on streptavidin
hPD-1-Fc [10] = target: T1, hPD-1-Fc; experiment: ELISA, hPD1-Fc coated

T1 sequence (Q15116 25-167 limits assumed): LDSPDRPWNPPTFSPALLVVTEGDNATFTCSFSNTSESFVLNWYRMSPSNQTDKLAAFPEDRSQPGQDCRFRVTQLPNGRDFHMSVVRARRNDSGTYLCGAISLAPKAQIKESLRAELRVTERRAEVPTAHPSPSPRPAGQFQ
T2 sequence (Q15116 other isoform, or with tags, fused parts or gaps limits assumed): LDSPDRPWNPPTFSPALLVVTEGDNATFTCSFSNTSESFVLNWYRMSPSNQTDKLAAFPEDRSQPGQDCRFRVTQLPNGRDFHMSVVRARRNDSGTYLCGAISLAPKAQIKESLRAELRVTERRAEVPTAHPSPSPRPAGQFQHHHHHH

Binder	OD at 10 nM (hPD-1-Fc [1]) [OD]	Inhibition at 50 nM (hPD-1-Fc [2])	OD at 10 nM (hPD-1-his [3]) [OD]	OD at 10 nM (hPD-1-his [4]) [OD]	Kd (hPD-1-his [5]) [pM]	Kd (hPD-1-Fc [6]) [pM]	IC50 (hPD-1-Fc [7]) [pM]	Inhibition % at 5.6 nM (hPD-1-Fc [7]) [%]	Inhibition % at 50 nM (hPD-1-Fc [7]) [%]	EC50 (hPD-1-his [8]) [pM]	OD450 at 10 nM (hPD-1-his [8]) [OD450]	EC50 (hPD-1-his [9]) [pM]	OD450 at 10 nM (hPD-1-his [9]) [OD450]	EC50 (hPD-1-Fc [10]) [pM]	OD450 at 10 nM (hPD-1-Fc [10]) [OD450]
32A11 (antibody, V domains shown) VH: EVQLLESGGGLVQPGGSLRLSCAASGFTFSSYWMSWVRQAPGKGLEWVSAISGSGGSTYYADSVKGRFTISRDNSKNTLYLQMNSLRAEDTAVYYCASSPLQWVDVWGQGTTVTVSS VL: DIQMTQSPSSLSASVGDRVTITCRASESISIWLAWYQQKPGKAPKLLIYDASNLETGVPSRFSGSGSGTNFTLTISSLQPEDFATYYCQQADSFPFTFGPGTKVDIK	0.921	91.1	1.03	0.919	–	–	–	–	–	–	–	–	–	–	–
38A10 (antibody, V domains shown) VH: EVQLLESGGGLVQPGGSLRLSCAASGFTFSSYWMSWVRQAPGKGLEWVSAISGSGGSTYYADSVKGRFTISRDNSKNTLYLQMNSLRAEDTAVYYCASSPLQWVDVWGQGTTVTVSS VL: DIQMTQSPSSLSASVGDRVTITCRASQSISTWLAWYQQKPGKAPKLLIYDASRLQNGVPSRFSGSGSGTDFTLTISSLQPEDFATYYCQQGDSFPFTFGPGTKVDIK	1.06	92.8	0.552	1	4820	834	–	–	–	–	–	–	–	–	–
39B11 (antibody, V domains shown) VH: EVQLLESGGGLVQPGGSLRLSCAASGFTFSSYWMSWVRQAPGKGLEWVSAISGSGGSTYYADSVKGRFTISRDNSKNTLYLQMNSLRAEDTAVYYCASSPLQWVDVWGQGTTVTVSS VL: DIQMTQSPSSLSASVGDRVTITCRASQSISSWLAWYQQKPGKAPKLLIYEASRLQSGVPSRFSGSGSGTDFTLTISSLQPEDFATYYCQQANSFPFTFGPGTKVDIK	1.08	93.3	0.482	0.99	–	–	–	–	–	–	–	–	–	–	–
32D2 (antibody, V domains shown) VH: EVQLLESGGGLVQPGGSLRLSCAASGFTFSSYWMSWVRQAPGKGLEWVSAISGSGGSTYYADSVKGRFTISRDNSKNTLYLQMNSLRAEDTAVYYCASSPLQWVDVWGQGTTVTVSS VL: DIQMTQSPSSLSASVGDRVTITCRASQGISRWLAWYQQKPGKAPKLLIYEASTLQSGVPSRFSGSGSGTDFTLTISSLQPEDFATYYCQQAYSFPFTFGQGTKVDIK	0.922	91.7	0.591	0.932	–	–	–	–	–	–	–	–	–	–	–
32D11 (antibody, V domains shown) VH: EVQLLESGGGLVQPGGSLRLSCAASGFTFSSYWMSWVRQAPGKGLEWVSAISGSGGSTYYADSVKGRFTISRDNSKNTLYLQMNSLRAEDTAVYYCASSPLQWVDVWGQGTTVTVSS VL: DIQMTQSPSSLSASVGDRVTITCRASQSINIWLAWYQQKPGKAPKLLIYDASNLETGVPSRFSGSGSGTDFTLTISSLQPEDFATYYCQQGYSFPFTFGPGTKVDIK	0.952	91.9	0.602	0.935	1440	554	–	–	–	–	–	–	–	–	–
38C11 (antibody, V domains shown) VH: EVQLLESGGGLVQPGGSLRLSCAASGFTFSSYWMSWVRQAPGKGLEWVSAISGSGGSTYYADSVKGRFTISRDNSKNTLYLQMNSLRAEDTAVYYCASSPLQWVDVWGQGTTVTVSS VL: DIQMTQSPSSLSASVGDRVTITCRASQSISRWLAWYQQKPGKAPKLLISDASTVQSGVPSRFSGSGSGTDFTLTISSLQPEDFATYYCQQANSFPFTFGPGTKVDIK	1.02	92.7	0.404	1.05	–	–	–	–	–	–	–	–	–	–	–
39G8 (antibody, V domains shown) VH: EVQLLESGGGLVQPGGSLRLSCAASGFTFSSYWMSWVRQAPGKGLEWVSAISGSGGSTYYADSVKGRFTISRDNSKNTLYLQMNSLRAEDTAVYYCASSPLQWVDVWGQGTTVTVSS VL: DIQMTQSPSSLSASVGDRVTITCRASQGISPWLAWYQQKPGKAPKLLIYDASKLETGVPSRFSGSGSGTDFTLTISSLQPEDFATYYCQQAYSFPFTFGGGTKVEIK	1.06	93.2	0.484	0.981	2580	794	–	–	–	–	–	–	–	–	–
39B3 (antibody, V domains shown) VH: EVQLLESGGGLVQPGGSLRLSCAASGFTFSSYWMSWVRQAPGKGLEWVSAISGSGGSTYYADSVKGRFTISRDNSKNTLYLQMNSLRAEDTAVYYCASSPLQWVDVWGQGTTVTVSS VL: DIQMTQSPSSLSASVGDRVTITCRASQSIGPWLAWYQQKPGKAPKLLIYDASNLETGVPSRFSGSGSGTDFTLTISSLQPEDFATYYCQQANSFPFTFGPGTKVDIK	1.08	92.9	0.617	0.963	–	–	–	–	–	–	–	–	–	–	–
38A11 (antibody, V domains shown) VH: EVQLLESGGGLVQPGGSLRLSCAASGFTFSSYWMSWVRQAPGKGLEWVSAISGSGGSTYYADSVKGRFTISRDNSKNTLYLQMNSLRAEDTAVYYCASSPLQWVDVWGQGTTVTVSS VL: DIQMTQSPSSLSASVGDRVTITCRASQSISSWLAWYQQKPGKAPKLLIYDASTLQSGVPSRFSGSGSGTDFTLTISSLQPEDFATYYCQQGNSFPFTFGPGTKVDIK	1.03	93.2	0.447	1.07	4930	1020	–	–	–	–	–	–	–	–	–
33G8 (antibody, V domains shown) VH: QVQLVQSGAEVKKPGSSVKVSCKASGGTFSSSVISWVRQAPGQGLEWMGGIIPIFGTANYAQKFQGRVTITADESTSTAYMELSSLRSEDTAVYYCAREGLGCSGGSCYSGYYYGMDVWGQGTTVTVSS VL: DIVMTQSPLSLPVTPGEPASISCRSSQSLLHSNGYNYLDWYLQKPGQSPQLLIYQASTLGSGVPDRFSGSGSGTDFTLKISRVEAEDVGVYYCMQGTHWPYTFGQGTKLEIK	–	–	–	–	–	–	1810	89.9	90.5	149	0.487	197	0.909	113	0.9
34C1 (antibody, V domains shown) VH: QVQLVQSGAEVKKPGSSVKVSCKASGGTFSSSVISWVRQAPGQGLEWMGGIIPIFGTANYAQKFQGRVTITADESTSTAYMELSSLRSEDTAVYYCAREGLGCSGGSCYSGYYYGMDVWGQGTTVTVSS VL: DIVMTQSPLSLPVTPGEPASISCRSSESLLYSNGNTYLDWYLQKPGQSPQLLIYEVSNRASGVPDRFSGSGSGTDFTLKISRVEAEDVGVYYCMQGTRWPYTFGQGTKVEIK	–	–	–	–	–	–	2010	89.1	89.3	86.6	0.521	233	0.945	147	0.926

Source: US20230416363A1 (KADMON, published 2023)
